The results in this text go back to the supplement of paper PMC5998384.

The subject of series [1] is HeLa Kyoto. Kind of series: solubility in G1/S (NP-40 vs SDS abundance) (log2 ratio); higher = more soluble. The following applies: cell cycle stage: G1/S.
Series [2] relates to HeLa Kyoto. Kind of series: thermal stability score vs G1/S (z-score of summed log2 fold changes over temperatures); higher = more thermally stable than in G1/S.
The test system of series [3] is HeLa Kyoto. Kind of series: melting temperature (median over replicates), in situ; higher = more thermally stable.
Series [4] has as its system HeLa Kyoto. Kind of series: solubility change mitosis vs G1/S (difference of NP-40 vs SDS log2 ratios) (log2 ratio difference); higher = more soluble in mitosis.
The mark [5] stands for this setting: cell cycle stage: early G1 (4.5 h after nocodazole release).
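For melting temperature (median over replicates), in situ in this document: HeLa Kyoto cells synchronized by double thymidine or nocodazole block, proteins quantified by TMT10plex mass spectrometry, three independent biological replicates.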
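For solubility change mitosis vs G1/S (difference of NP-40 vs SDS log2 ratios) in this document: synchronized HeLa Kyoto cells (double thymidine block for G1/S, nocodazole release for mitosis), protein amounts in NP-40 versus SDS lysates quantified by mass spectrometry, three biological replicates.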
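For solubility in G1/S (NP-40 vs SDS abundance) in this document: HeLa Kyoto cells arrested at G1/S by double thymidine block, proteins quantified by TMT10plex mass spectrometry in mild NP-40 versus SDS extracts, three biological replicates.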
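For thermal stability score vs G1/S (z-score of summed log2 fold changes over temperatures) in this document: synchronized HeLa Kyoto cells, proteins quantified by TMT10plex mass spectrometry, three biological replicates, mitosis taken 0.5 h after nocodazole release, G1/S directly after double thymidine block.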

For “MERAESSSTEPAKAIKPIDRKSVHQICSGQVVLSLSTAVKELVENSLDAGATNIDLKLKDYGVDLIEVSDNGCGVEEENFEGLTLKHHTSKIQEFADLTQVETFGFRGEALSSLCALSDVTISTCHASAKVGTRLMFDHNGKIIQKTPYPRPRGTTVSVQQLFSTLPVRHKEFQRNIKKEYAKMVQVLHAYCIISAGIRVSCTNQLGQGKRQPVVCTGGSPSIKENIGSVFGQKQLQSLIPFVQLPPSDSVCEEYGLSCSDALHNLFYISGFISQCTHGVGRSSTDRQFFFINRRPCDPAKVCRLVNEVYHMYNRHQYPFVVLNISVDSECVDINVTPDKRQILLQEEKLLLAVLKTSLIGMFDSDVNKLNVSQQPLLDVEGNLIKMHAADLEKPMVEKQDQSPSLRTGEEKKDVSISRLREAFSLRHTTENKPHSPKTPEPRRSPLGQKRGMLSSSTSGAISDKGVLRPQKEAVSSSHGPSDPTDRAEVEKDSGHGSTSVDSEGFSIPDTGSHCSSEYAASSPGDRGSQEHVDSQEKAPKTDDSFSDVDCHSNQEDTGCKFRVLPQPTNLATPNTKRFKKEEILSSSDICQKLVNTQDMSASQVDVAVKINKKVVPLDFSMSSLAKRIKQLHHEAQQSEGEQNYRKFRAKICPGENQAAEDELRKEISKTMFAEMEIIGQFNLGFIITKLNEDIFIVDQHATDEKYNFEMLQQHTVLQGQRLIAPQTLNLTAVNEAVLIENLEIFRKNGFDFVIDENAPVTERAKLISLPTSKNWTFGPQDVDELIFMLSDSPGVMCRPSRVKQMFASRACRKSVMIGTALNTSEMKKLITHMGEMDHPWNCPHGRPTMRHIANLGVISQN [PMS2]”, the “solubility in G1/S (log2)” value with HeLa Kyoto [1] was -0.0345. In addition, the values for the thermal stability score in the series on HeLa Kyoto [2] (setting [5]) and in the series on HeLa Kyoto [2] (cell cycle stage: mitosis) were 1.02 and 1.74, respectively. Also, the figures for the melting temperature in the series on HeLa Kyoto [3] (cell cycle stage: G1/S) and with HeLa Kyoto [3] (cell cycle stage: mitosis) were 48.3 °C and 49.7 °C, respectively. For the same sequence, the “solubility change mitosis (log2)” value in the series with HeLa Kyoto [4] is -0.029.
In the case of “MERAISPGLLVRALLLLLLLLGLAARTVAAGRARGLPAPTAEAAFGLGAAAAPTSATRVPAAGAVAAAEVTVEDAEALPAAAGEQEPRGPEPDDETELRPRGRSLVIISTLDGRIAALDPENHGKKQWDLDVGSGSLVSSSLSKPEVFGNKMIIPSLDGALFQWDQDRESMETVPFTVESLLESSYKFGDDVVLVGGKSLTTYGLSAYSGKVRYICSALGCRQWDSDEMEQEEDILLLQRTQKTVRAVGPRSGNEKWNFSVGHFELRYIPDMETRAGFIESTFKPNENTEESKIISDVEEQEAAIMDIVIKVSVADWKVMAFSKKGGHLEWEYQFCTPIASAWLLKDGKVIPISLFDDTSYTSNDDVLEDEEDIVEAARGATENSVYLGMYRGQLYLQSSVRISEKFPSSPKALESVTNENAIIPLPTIKWKPLIHSPSRTPVLVGSDEFDKCLSNDKFSHEEYSNGALSILQYPYDNGYYLPYYKRERNKRSTQITVRFLDNPHYNKNIRKKDPVLLLHWWKEIVATILFCIIATTFIVRRLFHPHPHRQRKESETQCQTENKYDSVSGEANDSSWNDIKNSGYISRYLTDFEPIQCLGRGGFGVVFEAKNKVDDCNYAIKRIRLPNRELAREKVMREVKALAKLEHPGIVRYFNAWLEAPPEKWQEKMDEIWLKDESTDWPLSSPSPMDAPSVKIRRMDPFATKEHIEIIAPSPQRSRSFSVGISCDQTSSSESQFSPLEFSGMDHEDISESVDAAYNLQDSCLTDCDVEDGTMDGNDEGHSFELCPSEASPYVRSRERTSSSIVFEDSGCDNASSKEEPKTNRLHIGNHCANKLTAFKPTSSKSSSEATLSISPPRPTTLSLDLTKNTTEKLQPSSPKVYLYIQMQLCRKENLKDWMNGRCTIEERERSVCLHIFLQIAEAVEFLHSKGLMHRDLKPSNIFFTMDDVVKVGDFGLVTAMDQDEEEQTVLTPMPAYARHTGQVGTKLYMSPEQIHGNSYSHKVDIFSLGLILFELLYPFSTQMERVRTLTDVRNLKFPPLFTQKYPCEYVMVQDMLSPSPMERPEAINIIENAVFEDLDFPGKTVLRQRSRSLSSSGTKHSRQSNNSHSPLPSN [EIF2AK3]”, the “solubility in G1/S (log2)” value with HeLa Kyoto [1] amounted to 0.0589. Further, the thermal stability score in the series with HeLa Kyoto [2] (setting [5]) was -0.111; in the series on HeLa Kyoto [2] (cell cycle stage: mitosis), 0.409. For the same sequence, the melting temperature in the series on HeLa Kyoto [3] (cell cycle stage: G1/S) worked out at 51 °C. Moreover, the “solubility change mitosis (log2)” value in the series on HeLa Kyoto [4] was -0.0251.
For “MERASLIQKAKLAEQAERYEDMAAFMKGAVEKGEELSCEERNLLSVAYKNVVGGQRAAWRVLSSIEQKSNEEGSEEKGPEVREYREKVETELQGVCDTVLGLLDSHLIKEAGDAESRVFYLKMKGDYYRYLAEVATGDDKKRIIDSARSAYQEAMDISKKEMPPTNPIRLGLALNFSVFHYEIANSPEEAISLAKTTFDEAMADLHTLSEDSYKDSTLIMQLLRDNLTLWTADNAGEEGGEAPQEPQS [SFN]”, the “solubility in G1/S (log2)” value in the series with HeLa Kyoto [1] came to 0.311. For the same sequence, the figures for the thermal stability score in the series with HeLa Kyoto [2] (setting [5]) and in the series on HeLa Kyoto [2] (cell cycle stage: mitosis) were -2.86 and -2.25, respectively. The melting temperature in the series with HeLa Kyoto [3] (cell cycle stage: G1/S) came to 52.6 °C; in the series on HeLa Kyoto [3] (cell cycle stage: mitosis) it was 53.1 °C. In addition, the “solubility change mitosis (log2)” value in the series with HeLa Kyoto [4] is 0.358.
In the case of “MERSPGEGPSPSPMDQPSAPSDPTDQPPAAHAKPDPGSGGQPAGPGAAGEALAVLTSFGRRLLVLIPVYLAGAVGLSVGFVLFGLALYLGWRRVRDEKERSLRAARQLLDDEEQLTAKTLYMSHRELPAWVSFPDVEKAEWLNKIVAQVWPFLGQYMEKLLAETVAPAVRGSNPHLQTFTFTRVELGEKPLRIIGVKVHPGQRKEQILLDLNISYVGDVQIDVEVKKYFCKAGVKGMQLHGVLRVILEPLIGDLPFVGAVSMFFIRRPTLDINWTGMTNLLDIPGLSSLSDTMIMDSIAAFLVLPNRLLVPLVPDLQDVAQLRSPLPRGIIRIHLLAARGLSSKDKYVKGLIEGKSDPYALVRLGTQTFCSRVIDEELNPQWGETYEVMVHEVPGQEIEVEVFDKDPDKDDFLGRMKLDVGKVLQASVLDDWFPLQGGQGQVHLRLEWLSLLSDAEKLEQVLQWNWGVSSRPDPPSAAILVVYLDRAQDLPLKKGNKEPNPMVQLSIQDVTQESKAVYSTNCPVWEEAFRFFLQDPQSQELDVQVKDDSRALTLGALTLPLARLLTAPELILDQWFQLSSSGPNSRLYMKLVMRILYLDSSEICFPTVPGCPGAWDVDSENPQRGSSVDAPPRPCHTTPDSQFGTEHVLRIHVLEAQDLIAKDRFLGGLVKGKSDPYVKLKLAGRSFRSHVVREDLNPRWNEVFEVIVTSVPGQELEVEVFDKDLDKDDFLGRCKVRLTTVLNSGFLDEWLTLEDVPSGRLHLRLERLTPRPTAAELEEVLQVNSLIQTQKSAELAAALLSIYMERAEDLPLRKGTKHLSPYATLTVGDSSHKTKTISQTSAPVWDESASFLIRKPHTESLELQVRGEGTGVLGSLSLPLSELLVADQLCLDRWFTLSSGQGQVLLRAQLGILVSQHSGVEAHSHSYSHSSSSLSEEPELSGGPPHITSSAPELRQRLTHVDSPLEAPAGPLGQVKLTLWYYSEERKLVSIVHGCRSLRQNGRDPPDPYVSLLLLPDKNRGTKRRTSQKKRTLSPEFNERFEWELPLDEAQRRKLDVSVKSNSSFMSRERELLGKVQLDLAETDLSQGVARWYDLMDNKDKGSS [ESYT1]”, in the series on HeLa Kyoto [1], the “solubility in G1/S (log2)” value was determined as 0.0161. In addition, the values for the thermal stability score with HeLa Kyoto [2] (setting [5]) and with HeLa Kyoto [2] (cell cycle stage: mitosis) were 2.16 and 4.68, respectively. Also, the values for the melting temperature in the series with HeLa Kyoto [3] (cell cycle stage: G1/S) and in the series with HeLa Kyoto [3] (cell cycle stage: mitosis) were 49.1 °C and 50.1 °C, respectively. For the same sequence, the “solubility change mitosis (log2)” value in the series on HeLa Kyoto [4] was -0.113.
